Patent US20230049152A1 (Genentech, published 2023)

T1: human ACKR4 (human, UniProt Q9NPB9 1-350)
T1 construct: whole, on cells; transiently expressed on HEK293 cells
T1 sequence (looked up): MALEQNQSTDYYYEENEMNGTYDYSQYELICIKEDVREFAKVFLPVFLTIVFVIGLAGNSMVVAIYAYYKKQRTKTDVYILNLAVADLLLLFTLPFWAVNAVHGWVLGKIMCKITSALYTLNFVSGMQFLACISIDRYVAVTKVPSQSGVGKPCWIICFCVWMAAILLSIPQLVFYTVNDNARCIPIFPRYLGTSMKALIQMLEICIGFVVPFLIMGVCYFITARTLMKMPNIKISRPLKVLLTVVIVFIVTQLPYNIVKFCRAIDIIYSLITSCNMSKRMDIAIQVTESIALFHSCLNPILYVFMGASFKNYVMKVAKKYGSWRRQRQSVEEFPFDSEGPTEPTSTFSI

T2: human CCR3 (human, UniProt P51677 1-355)
T2 construct: whole, on cells; transiently expressed on HEK293 cells
T2 sequence (looked up): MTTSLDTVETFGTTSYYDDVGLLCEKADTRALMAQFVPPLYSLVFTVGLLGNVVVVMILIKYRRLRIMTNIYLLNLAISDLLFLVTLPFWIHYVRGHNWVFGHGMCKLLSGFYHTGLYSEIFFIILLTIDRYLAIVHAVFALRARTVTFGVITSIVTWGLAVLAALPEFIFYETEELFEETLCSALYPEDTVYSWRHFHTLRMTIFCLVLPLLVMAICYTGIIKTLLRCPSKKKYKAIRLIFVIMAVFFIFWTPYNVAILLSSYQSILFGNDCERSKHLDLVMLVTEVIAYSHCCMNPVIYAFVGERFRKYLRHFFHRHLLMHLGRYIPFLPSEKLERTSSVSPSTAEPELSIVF

B1: hu.Ab4.H1L1 (antibody, human IgG1, kappa)
heavy: not shown
light: DYQMTQSPSSLSASVGDRVTITCQASQSISSYLSWYQQKPGKRPKLLIYKASTLASGVPSRFSGSGSGTDFTLTISSLQPEDFATYYCQQGYTSSNIDNIFGGGTKVEIKRTVAAPSVFIFPPSDEQLKSGTASVVCLLNNFYPREAKVQWKVDNALQSGNSQESVTEQDSKDSTYSLSSTLTLSKADYEKHKVYACEVTHQGLSSPVTKSFNRGEC
notes: also called hu.Ab4.H1Ll
B2: hu.Ab5.H1L1 (antibody, human IgG1, kappa)
heavy: not shown
light: DIQVTQSPSSLSASVGDRVTITCQASENIANALAWYQQKPGKPPKFLIYGASNLASGVPSRFSGSGSGTDFTFTISSLQPEDIATYYCQQAYYGNSFVEGTFGGGTKVEIKRTVAAPSVFIFPPSDEQLKSGTASVVCLLNNFYPREAKVQWKVDNALQSGNSQESVTEQDSKDSTYSLSSTLTLSKADYEKHKVYACEVTHQGLSSPVTKSFNRGEC

Experiments:
[1] = biological target: T3, human CCR8 (human, UniProt P51685 1-355); test: flow cytometry, 2 ug/mL mAb, Treg cells of human colorectal dissociated tumor cells
T3 construct: the assay field says which; also called hCCR8; huCCR8
Method: The mAbs were evaluated for binding to regulatory T cells (Treg cells or Tregs) by Fluorescence-Activated Cell Sorting (FACS) flow cytometry. Human colorectal dissociated tumor cells (DTC) (Discovery Life Sciences) were thawed according to vendor's protocol. Cells were surface stained with eFluor 780-conjugated Fixable Viability Dye (ThermoFisher Scientific) and 2 ug/mL mAb specific for CCR8, OX40 (positive control), Herceptin (negative control), or anti-hIgG (negative control) for 20 min at 4° C. followed by secondary detection with AF647-conjugated AffiniPure F(ab′)2 Fragment Goat anti-Human IgG, Fcg fragment-specific (Jackson ImmunoResearch) for 10 min at 4° C. Cells were then intracellularly stained using the eBioscience Foxp3/Transcription Factor Staining Buffer Set (ThermoFisher Scientific) according to the manufacturer's protocol. […] Shown in FIG. 1 are mean fluorescent intensity (MFI) values for CD8 T cells (defined as CD45+CD14−CD3+CD8+CD4−) (circles, ◯), conventional CD4 T cells (defined as CD45+CD14−CD3+CD8−CD4+FOXP3−) (squares, □), and Treg cells (defined as CD45+CD14−CD3+CD8−CD4+FOXP3+) (triangles, ▴). Three of the five CCR8 mAb clones specifically stained Treg cells and not conventional CD4 or CD8 T cells and were ranked according to CCR8 MFI, greater than 500 MFI: hu.Ab4.H1L1>hu.Ab5.H1L1>hu.Ab3.H1L1. Upon confirmation that these three CCR8 mAb clones, namely, hu.Ab3.H1L1, hu.Ab4.H1L1, and hu.Ab5.H1L1, also retained human-cyno cross-reactivity (differences less than 5-fold on human and cyno CCR8 CHO cells), these antibodies carried forward for further exploration.

[2] = biological target: T1, human ACKR4; test: flow cytometry, HEK293 with N-term FLAG-tagged human ACKR4
Excerpt: (§1) FIGS. 4A-4F depicts the binding data of hu.Ab3.H1L1 (FIG. 4A), hu.Ab4.H1L1 (FIG. 4B), and hu.Ab5.H1L1 (FIG. 4C), as well as the commercial anti-CCR8 mAbs murine anti-human CCR8 mAb 433H (BD Biosciences) (FIG. 4D), and murine anti-human CCR8 mAb L263G8 (Biolegend) (FIG. 4E), and the humanized anti-human Yoshida anti-CCR8 mAb (FIG. 4F), to HEK293 cells that were transiently transfected with N-term FLAG-tagged plasmids encoding for human GPCRs (CCR2, CCR3, CCR4, CCR5, CCR8, CXCR4, ACKR2, and ACKR4), hCCR8 constructs, or with a mock construct using transIT X2 (reagent:DNA=3:1).
(§2) To confirm the selectivity to CCR8, the binding of hu.Ab3.H1L1, hu.Ab4.H1L1, and hu.Ab5.H1L1, as well as the Yoshida humanized anti-human CCR8, murine anti-human CCR8 mAb L263G8 (Biolegend, Commercial Ab) and murine anti-human CCR8 mAb 433H (BD Biosciences, Commercial Ab), were characterized by flow cytometry on HEK293 cells that were transiently transfected with plasmids encoding for FLAG-tagged other related human GPCRs (CCR2-5, CXCR4, ACKR2, and ACKR4). Cell surface expression of each GPCR was confirmed by staining with an anti-FLAG antibody control. […]

[3] = biological target: T2, human CCR3; test: flow cytometry, HEK293 with N-term FLAG-tagged human CCR3
Excerpt: as §1, §2

| Binder | MFI [1] [MFI] | binding result [2] | binding result [3] |
| --- | --- | --- | --- |
| B1 | > 500 | no binding (tested: 5 ug/ml) | no binding (tested: 5 ug/ml) |
| B2 | > 500 | no binding (tested: 5 ug/ml) | no binding (tested: 5 ug/ml) |
